We go through two molecules from US20220251198A1 (Eli Lilly, published 2022).

The target of test [1] is T1, human CD200R expressed on cells (human, UniProt Q8TD46 25-348).
T1 chain: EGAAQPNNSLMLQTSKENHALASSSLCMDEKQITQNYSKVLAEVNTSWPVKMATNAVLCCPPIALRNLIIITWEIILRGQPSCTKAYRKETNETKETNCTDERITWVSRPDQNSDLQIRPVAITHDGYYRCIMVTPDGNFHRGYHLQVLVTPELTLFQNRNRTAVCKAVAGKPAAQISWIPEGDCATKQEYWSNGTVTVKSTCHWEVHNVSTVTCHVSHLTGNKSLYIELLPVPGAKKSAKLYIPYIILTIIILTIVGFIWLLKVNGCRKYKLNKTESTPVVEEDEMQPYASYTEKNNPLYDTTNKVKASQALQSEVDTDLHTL
Kind of test: cell-based or functional assay.

Test [2] has as its target T2, human FcγRI extracellular domain (human, UniProt P12314 16-292).
T2 construct: extracellular domain; also called CD64
Kind of test: SPR at 25 C, antibody captured on Protein A, FcγR ECD analyte. How it is done:
(§1) Biacore® T100 instrument and Biacore® 3000 (GE Healthcare, Piscataway, NJ), Biacore® reagents and Scrubber2 Biacore® Evaluation Software (Biologics 2008) are used for the SPR analysis of antibody binding. A CM5 chip (Biacore® P/N BR-1006-68) is prepared using the manufacturer's EDC/NHS amine coupling method (Biacore® P/N BR-1000-50). Briefly, the surfaces of all 4 FCs are activated by injecting a 1:1 mixture of EDC/NHS for 7 minutes at 10 μL/minute. Protein A (Calbiochem P/N 539202) is diluted to 100 μg/mL in 10 mM acetate, pH 4.5 buffer and immobilized for approximately 400 RU onto all 4 flow cells by 7 minute injection at a flow rate of 10 μL/minute. Un-reacted sites are blocked with a 7-minute injection of ethanolamine at 10 μL/minute. Injections of 2×10 μL of glycine pH 1.5 are used to remove any non-covalently associated protein.
Reference-subtracted data is collected as FC2-FC1, FC3-FC1, and FC4-FC1. The measurements are obtained at 25° C. The affinity (KD) is calculated using either steady state equilibrium analysis with the Scrubber 2 Biacore® Evaluation Software or a “1:1 (Langmuir) binding” model in BIA Evaluation.

The target in test [3] is T3, human FcγRIIA_131H extracellular domain (human, UniProt P12318 34-217).
T3 construct: extracellular domain; also called CD32a
T3 sequence (looked up): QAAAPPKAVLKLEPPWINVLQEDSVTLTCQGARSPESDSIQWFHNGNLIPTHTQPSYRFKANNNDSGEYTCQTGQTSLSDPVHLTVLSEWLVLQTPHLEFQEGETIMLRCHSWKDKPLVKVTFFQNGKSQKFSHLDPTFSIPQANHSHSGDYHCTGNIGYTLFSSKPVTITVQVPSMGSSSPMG
The experiment in a line: SPR at 25 C, antibody captured on Protein A, FcγR ECD analyte, steady state. How it is done: as §1
(§2) For FcγRIIa, FcγRIIb, and FcγRIIIa binding, antibodies are diluted to […] in running buffer, and approximately 500 RU of each variant is captured in flow cells 2 through 4 (RUcaptured). FC1 is the reference flow cell. Fcγ receptor ECDs are diluted to 10 μM in running buffer and then 2 fold serially diluted in running buffer to 39 nM. Duplicate injections of each concentration are injected over all FCs at 40 μL/minute for 60 seconds followed by a 120 second dissociation phase. Regeneration is performed by injecting 15 μL of 10 mM glycine pH 1.5 at 30 μL/min over all FCs.
(§3) Reference-subtracted data is collected as FC2-FC1, FC3-FC1, and FC4-FC1. The measurements are obtained at 25° C. The affinity (KD) is calculated using the steady state equilibrium analysis with the Scrubber 2 Biacore® Evaluation Software.

Test [4] concerns the target T4, human FcγRIIA_131R extracellular domain (human, UniProt P12318 34-217).
T4 construct: extracellular domain; also called CD32a
T4 sequence (looked up): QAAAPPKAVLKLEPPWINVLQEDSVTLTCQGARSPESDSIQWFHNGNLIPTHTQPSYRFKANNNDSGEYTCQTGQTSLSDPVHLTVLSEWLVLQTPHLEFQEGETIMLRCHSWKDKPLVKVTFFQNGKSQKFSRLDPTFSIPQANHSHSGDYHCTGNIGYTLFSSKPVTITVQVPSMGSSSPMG
The description is as above. How it is done:
as §1, §2, §3

The target in test [5] is T5, human FcγRIIb extracellular domain (human, UniProt P31994 43-217).
T5 construct: extracellular domain; also called CD32b
T5 sequence (looked up): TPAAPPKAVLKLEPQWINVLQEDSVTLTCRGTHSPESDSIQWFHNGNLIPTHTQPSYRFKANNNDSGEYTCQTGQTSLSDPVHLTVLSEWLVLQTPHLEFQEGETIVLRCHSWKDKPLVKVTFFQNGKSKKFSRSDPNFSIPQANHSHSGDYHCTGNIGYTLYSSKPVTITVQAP
The description is as above. As to the method: as §1, §2, §3

Test [6] concerns the target T6, human FcγRIIIA_158V extracellular domain (human, UniProt P08637 17-208).
T6 construct: extracellular domain; Allotype with Val at 158 (numbering as in the label); also called CD16a
The description is as above. As to the method: as §1, §2, §3

For test [7], the target named is T7, human CD200R (purified soluble receptor, SPR analyte) (human, UniProt Q8TD46 29-265, limits assumed).
T7 construct: Purified by IMAC and size exclusion chromatography; also called hCD200R; human CD200 receptor
T7 chain: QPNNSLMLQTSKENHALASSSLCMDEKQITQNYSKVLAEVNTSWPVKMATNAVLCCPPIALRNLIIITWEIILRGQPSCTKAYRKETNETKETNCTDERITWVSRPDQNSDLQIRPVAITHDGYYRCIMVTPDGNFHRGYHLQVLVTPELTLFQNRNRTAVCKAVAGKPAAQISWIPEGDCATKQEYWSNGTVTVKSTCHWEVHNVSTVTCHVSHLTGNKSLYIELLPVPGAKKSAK
Kind of test: SPR at 37 C, antibody captured on Protein A, receptor analyte, 1:1 model; n=3.

The target of test [8] is T8, cynomolgus monkey CD200R (purified soluble receptor, SPR analyte) (cynomolgus monkey, UniProt Q8TD46 25-265 (human entry)).
T8 construct: Purified by IMAC and size exclusion chromatography; also called cyno CD200R
T8 chain: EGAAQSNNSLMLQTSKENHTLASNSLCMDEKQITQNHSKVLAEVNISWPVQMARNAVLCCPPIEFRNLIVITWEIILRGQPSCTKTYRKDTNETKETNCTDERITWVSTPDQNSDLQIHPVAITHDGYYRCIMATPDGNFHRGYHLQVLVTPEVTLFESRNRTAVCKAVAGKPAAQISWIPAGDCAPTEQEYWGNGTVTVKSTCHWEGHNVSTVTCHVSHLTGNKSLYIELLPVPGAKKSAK
The test is described as above.

The target in test [9] is T9, human FcγRIIIA_158F extracellular domain (human, UniProt P08637 17-208).
T9 construct: extracellular domain; Allotype with Phe at 158 (numbering as in the label); also called CD16a
T9 sequence (P08637 17-208): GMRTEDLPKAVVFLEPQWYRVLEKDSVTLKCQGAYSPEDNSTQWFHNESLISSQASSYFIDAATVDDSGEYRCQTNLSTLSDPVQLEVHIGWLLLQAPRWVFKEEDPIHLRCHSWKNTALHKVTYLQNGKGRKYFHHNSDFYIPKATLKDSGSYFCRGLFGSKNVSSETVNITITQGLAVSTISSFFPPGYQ
The experiment in a line: SPR at 25 C, antibody captured on Protein A, FcγR ECD analyte, steady state. As to the method: as §1, §2, §3

T2 sequence (P12314 16-292): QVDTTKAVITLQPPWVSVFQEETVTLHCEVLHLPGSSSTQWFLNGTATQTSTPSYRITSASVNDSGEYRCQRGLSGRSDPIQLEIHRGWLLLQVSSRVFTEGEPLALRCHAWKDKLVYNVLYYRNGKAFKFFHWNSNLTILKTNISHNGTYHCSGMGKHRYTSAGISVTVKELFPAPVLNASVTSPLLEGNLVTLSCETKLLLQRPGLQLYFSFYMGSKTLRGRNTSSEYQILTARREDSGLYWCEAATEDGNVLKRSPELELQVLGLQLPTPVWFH
T6 sequence (P08637 17-208 F176V): as the sequence (P08637 17-208) above, with F160V counted along it

B1: Antibody I-4P (antibody, human IgG4 S228P, kappa)
heavy: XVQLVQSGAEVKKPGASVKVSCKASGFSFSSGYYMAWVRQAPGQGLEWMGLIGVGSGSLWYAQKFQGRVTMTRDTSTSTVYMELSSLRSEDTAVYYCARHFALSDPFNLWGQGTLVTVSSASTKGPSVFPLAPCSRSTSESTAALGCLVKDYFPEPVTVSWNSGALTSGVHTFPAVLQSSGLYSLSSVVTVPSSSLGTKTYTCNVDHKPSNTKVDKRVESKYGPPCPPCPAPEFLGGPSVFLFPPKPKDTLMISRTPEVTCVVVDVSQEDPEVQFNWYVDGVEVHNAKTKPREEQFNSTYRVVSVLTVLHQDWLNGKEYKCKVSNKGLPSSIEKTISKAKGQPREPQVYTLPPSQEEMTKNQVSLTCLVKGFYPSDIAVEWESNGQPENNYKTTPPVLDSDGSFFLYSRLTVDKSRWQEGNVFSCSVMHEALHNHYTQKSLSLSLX
light: EIVLTQSPDFQSVTPKEKVTITCQASESIDSYLLWYQQKPDQSPKLLIKQASTLASGVPSRFSGSGSGTDFTLTINSLEAEDAATYYCQNYYDISSNDFGGGTKVEIKRTVAAPSVFIFPPSDEQLKSGTASVVCLLNNFYPREAKVQWKVDNALQSGNSQESVTEQDSKDSTYSLSSTLTLSKADYEKHKVYACEVTHQGLSSPVTKSFNRGEC
modifications: Xaa at position 1 is either glutamine or pyroglutamic acid; Xaa at position 446 is either glycine or absent
notes: Humanized IgG4P (S228P), kappa; also called IgG4SP; Antibody I-4P-AF647 (AF647-labelled form used as stain)
For B1, the “IC50 of inhibition of IC-stimulated IL-8 release, human CD200R-expressing U937 cells” value in [1] turned out to be 0.07 µg/mL. For the same molecule, the “IC50 of inhibition of immune-complex induced IL-8 secretion, U937 cells expressing human CD200R (average of 3 experiments)” value in test [1] amounted to 0.2 µg/mL. For the same molecule, the Kd in [2] amounted to 0.369 nM; in [3] it was 3900 nM; in test [4] it was 1700 nM; in test [5], 2200 nM; in test [6] it was 4300 nM; in test [7] it was 5.6 nM. Besides, the Kd in test [8] worked out at 2.3 nM.

B2: Antibody I-IgG1 (antibody)
heavy: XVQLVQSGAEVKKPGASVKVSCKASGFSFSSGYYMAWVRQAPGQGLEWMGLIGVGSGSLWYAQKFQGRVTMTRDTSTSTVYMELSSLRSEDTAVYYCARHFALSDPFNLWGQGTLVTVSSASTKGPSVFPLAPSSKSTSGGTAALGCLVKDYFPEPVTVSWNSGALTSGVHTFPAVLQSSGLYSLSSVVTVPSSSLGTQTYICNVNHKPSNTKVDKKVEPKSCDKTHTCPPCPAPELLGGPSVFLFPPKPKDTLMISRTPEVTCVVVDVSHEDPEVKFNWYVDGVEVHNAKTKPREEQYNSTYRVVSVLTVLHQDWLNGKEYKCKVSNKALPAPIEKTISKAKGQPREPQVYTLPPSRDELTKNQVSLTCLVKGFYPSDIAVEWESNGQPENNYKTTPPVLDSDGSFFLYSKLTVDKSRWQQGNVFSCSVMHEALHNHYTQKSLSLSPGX
light: EIVLTQSPDFQSVTPKEKVTITCQASESIDSYLLWYQQKPDQSPKLLIKQASTLASGVPSRFSGSGSGTDFTLTINSLEAEDAATYYCQNYYDISSNDFGGGTKVEIKRTVAAPSVFIFPPSDEQLKSGTASVVCLLNNFYPREAKVQWKVDNALQSGNSQESVTEQDSKDSTYSLSSTLTLSKADYEKHKVYACEVTHQGLSSPVTKSFNRGEC
modifications: Xaa at position 1 is either glutamine or pyroglutamic acid; Xaa at position 450 is either lysine or absent
notes: Same HCVR, LCVR and LC as Antibody I-4P; IgG1 heavy chain
As for B2, the Kd is 0.0489 nM in test [2]; 500 nM in [3]; 600 nM in [4]; 2800 nM in [5]; 200 nM in [6]; 900 nM in test [9].
